In PMC10269571:

Target: 3M2e-ferritin nanoparticle (three copies of M2e of H1N1 influenza virus fused to the N terminus of H. pylori ferritin) (influenza A virus H1N1 | Helicobacter pylori)
Assay: native gel or EMSA

## 3M2e-ferritin nanoparticle (three copies of M2e of H1N1 influenza virus fused to the N terminus of H. pylori ferritin)
  stoichiometry N: 24
